# Laboratory results reported in patent US20180155451A1 (published 2018).
# T1: FcγRIIb (human, UniProt P31994 43-217)
# T1 construct: extracellular domain; also called FcgRIIb; 2b
# T1 sequence (looked up): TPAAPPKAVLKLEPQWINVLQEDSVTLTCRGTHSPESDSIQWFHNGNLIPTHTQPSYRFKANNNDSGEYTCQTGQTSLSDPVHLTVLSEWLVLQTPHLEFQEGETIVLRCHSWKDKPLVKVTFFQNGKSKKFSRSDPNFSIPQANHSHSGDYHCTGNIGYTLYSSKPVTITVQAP
# B1: GpH7-A5/GpH7-B3 variant L328_12R/GpL16-k0 (antibody, human IgG1, kappa)
# heavy 1: not shown
# heavy 2: not shown
# light: DIVMTQSPLSLPVTPGEPASISCQASESLVHSNRNTYLHWYLQKPGQSPQLLIYKVSNRFSGVPDRFSGSGSGTDFTLKISRVEAEDVGVYYCSQNTHVPPTFGQGTKVEIERTVAAPSVFIFPPSDEQLKSGTASVVCLLNNFYPREAKVQWKVDNALQSGNSQESVTEQDSKDSTYSLSSTLTLSKADYEKHKVYACEVTHQGLSSPVTKSFNRGEC
# notes: He Ab: heterodimerized anti-glypican-3 IgG1, substitution in one H chain only; also called He Ab L328R
# B2: GpH7-A5/GpH7-B3 variant L328_11K/GpL16-k0 (antibody, human IgG1, kappa)
# heavy 1: not shown
# heavy 2: not shown
# light: B1 light
# notes: He Ab: heterodimerized anti-glypican-3 IgG1, substitution in one H chain only; also called He Ab L328K
# B3: GpH7-B3 variant Y300_01G/GpL16-k0 (antibody, human IgG1, kappa)
# heavy: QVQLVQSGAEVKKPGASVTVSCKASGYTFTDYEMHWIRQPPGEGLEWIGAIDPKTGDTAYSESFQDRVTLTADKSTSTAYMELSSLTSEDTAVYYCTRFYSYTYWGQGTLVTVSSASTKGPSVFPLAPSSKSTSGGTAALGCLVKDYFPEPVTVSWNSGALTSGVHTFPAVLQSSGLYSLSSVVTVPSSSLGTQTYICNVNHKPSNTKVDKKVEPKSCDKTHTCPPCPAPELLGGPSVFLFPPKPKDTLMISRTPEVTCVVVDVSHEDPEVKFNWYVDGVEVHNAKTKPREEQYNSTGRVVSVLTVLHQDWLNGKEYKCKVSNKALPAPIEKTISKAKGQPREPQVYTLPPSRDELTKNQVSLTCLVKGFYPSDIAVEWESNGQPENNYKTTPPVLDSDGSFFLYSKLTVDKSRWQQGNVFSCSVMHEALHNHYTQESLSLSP
# light: B1 light
# notes: homodimerized IgG1; mutation in both H chains; also called Ho Ab
# B4: GpH7-B3 variant T335_16H/GpL16-k0 (antibody, human IgG1, kappa)
# heavy: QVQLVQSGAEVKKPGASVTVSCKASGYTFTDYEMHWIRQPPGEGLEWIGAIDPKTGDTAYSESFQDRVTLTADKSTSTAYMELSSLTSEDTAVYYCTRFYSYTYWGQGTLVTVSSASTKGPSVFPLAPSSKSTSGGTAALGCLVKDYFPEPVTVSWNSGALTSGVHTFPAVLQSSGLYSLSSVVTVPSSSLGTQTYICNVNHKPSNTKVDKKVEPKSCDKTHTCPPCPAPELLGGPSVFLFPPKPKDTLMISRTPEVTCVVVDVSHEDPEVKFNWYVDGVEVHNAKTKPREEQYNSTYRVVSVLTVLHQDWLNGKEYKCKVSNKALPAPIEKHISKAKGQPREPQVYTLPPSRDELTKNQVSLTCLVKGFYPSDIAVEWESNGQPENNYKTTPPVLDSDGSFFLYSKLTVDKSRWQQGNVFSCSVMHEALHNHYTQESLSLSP
# light: B1 light
# notes: as for B3
# B5: GpH7-B3 variant T335_18N/GpL16-k0 (antibody, human IgG1, kappa)
# heavy: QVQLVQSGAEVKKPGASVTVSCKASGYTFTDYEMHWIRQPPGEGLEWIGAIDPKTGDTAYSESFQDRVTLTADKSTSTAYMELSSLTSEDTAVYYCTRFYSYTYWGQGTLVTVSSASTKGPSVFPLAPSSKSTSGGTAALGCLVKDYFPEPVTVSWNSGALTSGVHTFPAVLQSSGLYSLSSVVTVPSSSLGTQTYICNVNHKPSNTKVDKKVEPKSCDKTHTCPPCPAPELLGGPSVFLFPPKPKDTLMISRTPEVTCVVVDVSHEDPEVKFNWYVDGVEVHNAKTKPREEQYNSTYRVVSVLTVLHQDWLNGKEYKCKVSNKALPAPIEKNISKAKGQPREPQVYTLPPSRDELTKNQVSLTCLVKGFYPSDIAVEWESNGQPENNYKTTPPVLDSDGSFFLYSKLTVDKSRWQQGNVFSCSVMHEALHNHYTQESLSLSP
# light: B1 light
# notes: as for B3
# B6: GpH7-A5/GpH7-B3 variant S298_19Q/GpL16-k0 (antibody, human IgG1, kappa)
# heavy 1: not shown
# heavy 2: not shown
# light: B1 light
# notes: heterodimerized IgG1, one H chain mutated; also called He Ab
# B7: GpH7-A5/GpH7-B3 variant S324_16H/GpL16-k0 (antibody, human IgG1, kappa)
# heavy 1: not shown
# heavy 2: not shown
# light: B1 light
# notes: as for B6
# B8: GpH7-A5/GpH7-B3 variant Y300_06M/GpL16-k0 (antibody, human IgG1, kappa)
# heavy 1: not shown
# heavy 2: not shown
# light: B1 light
# notes: as for B6
# B9: GpH7-A5/GpH7-B3 variant S324_01G/GpL16-k0 (antibody, human IgG1, kappa)
# heavy 1: not shown
# heavy 2: not shown
# light: B1 light
# notes: as for B6
# B10: GpH7-A5/GpH7-B3 variant Y300_03V/GpL16-k0 (antibody, human IgG1, kappa)
# heavy 1: not shown
# heavy 2: not shown
# light: B1 light
# notes: as for B6
# B11: GpH7-A5/GpH7-B3 variant S324_19Q/GpL16-k0 (antibody, human IgG1, kappa)
# heavy 1: not shown
# heavy 2: not shown
# light: B1 light
# notes: as for B6
# B12: GpH7-A5/GpH7-B3 variant Y300_14T/GpL16-k0 (antibody, human IgG1, kappa)
# heavy 1: not shown
# heavy 2: not shown
# light: B1 light
# notes: as for B6
# B13: GpH7-A5/GpH7-B3 variant Y300_09D/GpL16-k0 (antibody, human IgG1, kappa)
# heavy 1: not shown
# heavy 2: not shown
# light: B1 light
# notes: as for B6
# B14: GpH7-A5/GpH7-B3 variant S298_20W/GpL16-k0 (antibody, human IgG1, kappa)
# heavy 1: not shown
# heavy 2: not shown
# light: B1 light
# notes: as for B6
# B15: GpH7-A5/GpH7-B3 variant S324_20W/GpL16-k0 (antibody, human IgG1, kappa)
# heavy 1: not shown
# heavy 2: not shown
# light: B1 light
# notes: as for B6
# B16: GpH7-A5/GpH7-B3 variant S324_11K/GpL16-k0 (antibody, human IgG1, kappa)
# heavy 1: not shown
# heavy 2: not shown
# light: B1 light
# notes: as for B6
# B17: GpH7-A5/GpH7-B3 variant Y300_11K/GpL16-k0 (antibody, human IgG1, kappa)
# heavy 1: not shown
# heavy 2: not shown
# light: B1 light
# notes: as for B6
# B18: GpH7-A5/GpH7-B3 variant S324_15Y/GpL16-k0 (antibody, human IgG1, kappa)
# heavy 1: not shown
# heavy 2: not shown
# light: B1 light
# notes: as for B6
# B19: GpH7-A5/GpH7-B3 variant Y300_05P/GpL16-k0 (antibody, human IgG1, kappa)
# heavy 1: not shown
# heavy 2: not shown
# light: B1 light
# notes: as for B6
# B20: GpH7-A5/GpH7-B3 variant S324_14T/GpL16-k0 (antibody, human IgG1, kappa)
# heavy 1: not shown
# heavy 2: not shown
# light: B1 light
# notes: as for B6
# B21: GpH7-A5/GpH7-B3 variant Y300_16H/GpL16-k0 (antibody, human IgG1, kappa)
# heavy 1: not shown
# heavy 2: not shown
# light: B1 light
# notes: as for B6
# B22: GpH7-A5/GpH7-B3 variant Y300_12R/GpL16-k0 (antibody, human IgG1, kappa)
# heavy 1: not shown
# heavy 2: not shown
# light: B1 light
# notes: as for B6
# B23: GpH7-A5/GpH7-B3 variant S324_12R/GpL16-k0 (antibody, human IgG1, kappa)
# heavy 1: not shown
# heavy 2: not shown
# light: B1 light
# notes: as for B6
# B24: GpH7-A5/GpH7-B3 variant Y300_07I/GpL16-k0 (antibody, human IgG1, kappa)
# heavy 1: not shown
# heavy 2: not shown
# light: B1 light
# notes: as for B6
# B25: GpH7-A5/GpH7-B3 variant S324_09D/GpL16-k0 (antibody, human IgG1, kappa)
# heavy 1: not shown
# heavy 2: not shown
# light: B1 light
# notes: as for B6
# B26: GpH7-A5/GpH7-B3 variant Y300_02A/GpL16-k0 (antibody, human IgG1, kappa)
# heavy 1: not shown
# heavy 2: not shown
# light: B1 light
# notes: as for B6
# B27: GpH7-A5/GpH7-B3 variant Y300_08L/GpL16-k0 (antibody, human IgG1, kappa)
# heavy 1: not shown
# heavy 2: not shown
# light: B1 light
# notes: as for B6
# B28: GpH7-A5/GpH7-B3 variant S324_02A/GpL16-k0 (antibody, human IgG1, kappa)
# heavy 1: not shown
# heavy 2: not shown
# light: B1 light
# notes: as for B6
# B29: GpH7-A5/GpH7-B3 variant Y300_13S/GpL16-k0 (antibody, human IgG1, kappa)
# heavy 1: not shown
# heavy 2: not shown
# light: B1 light
# notes: as for B6
# B30: GpH7-A5/GpH7-B3 variant Y300_20W/GpL16-k0 (antibody, human IgG1, kappa)
# heavy 1: not shown
# heavy 2: not shown
# light: B1 light
# notes: as for B6
# B31: GpH7-A5/GpH7-B3 variant S324_10E/GpL16-k0 (antibody, human IgG1, kappa)
# heavy 1: not shown
# heavy 2: not shown
# light: B1 light
# notes: as for B6
# B32: GpH7-A5/GpH7-B3 variant S324_18N/GpL16-k0 (antibody, human IgG1, kappa)
# heavy 1: not shown
# heavy 2: not shown
# light: B1 light
# notes: as for B6
# Target: T2, FcγRIa extracellular domain with C-terminal His tag (human, UniProt P12314 16-292)
# T2 construct: extracellular domain; Soluble receptor expressed in FreeStyle293 cells; analyte in Biacore; also called FcgRI; FcgRIa; not shown: His tag at the C terminus
# Test: SPR (Biacore); He/Con_1a divided by He/Con_2b (FcγRIIb)
# Protocol: (§1) The heterodimerized antibodies He Abs in which one of the H chains was introduced with an alteration were assayed for their binding activities to each activating FcγR and inhibitory FcγR according to the method described in Example 4. […] The activating FcγRs in FIGS. 26, 27, 28, and 29 are FcγRIa, FcγRIIa (R), FcγRIIa (H), and FcγRIIIa, respectively.
# (§2) Analysis of interaction between objective antibody and the FcγR was carried out using Biacore T100 (GE Healthcare). HBS-EP+ (GE Healthcare) was used as the running buffer, and the measurement temperature was set to 25° C. Chips produced by immobilizing the antigen peptide by the amine coupling method to a Series S Sencor Chip CM5 (GE Healthcare), or alternatively, chips produced by allowing preliminarily biotinylated antigen peptides to interact with and immobilize onto a Series S Sensor Chip SA (certified) (GE Healthcare) were used. Antibodies of interest were captured onto an antigen peptide-immobilized chip, and allowed to interact to each FcγR diluted with running buffer. To regenerate and repeatedly use the chip, the antibodies captured on the chip were washed off by reacting 10 mM glycine-HCl, pH 1.5.
# T2 sequence (P12314 16-292): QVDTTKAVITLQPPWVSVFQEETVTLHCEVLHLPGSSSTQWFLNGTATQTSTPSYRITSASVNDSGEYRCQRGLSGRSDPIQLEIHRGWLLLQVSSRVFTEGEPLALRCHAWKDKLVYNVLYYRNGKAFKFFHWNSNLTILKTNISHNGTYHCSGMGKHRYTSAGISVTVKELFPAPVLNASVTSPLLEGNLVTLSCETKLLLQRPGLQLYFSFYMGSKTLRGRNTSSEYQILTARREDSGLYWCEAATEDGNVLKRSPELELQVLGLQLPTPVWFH
row,He_1a/2b (Ia/IIb),Binder
1,8.51,B1
2,10.5,B2

# Target: T2, FcγRIa extracellular domain with …
# Test: SPR (Biacore), antibody captured on antigen peptide chip, FcγR as analyte; binding relative to GpH7-A5/GpH7-B3/GpL16-k0 = 100
# Protocol: as §1, §2
row,He/Con_1a (Ia binding),Binder
1,78.6 % of control (control = 100),B1
2,79.2 % of control (control = 100),B2

# Target: T3, FcγRIa (human, UniProt P12314 16-292)
# T3 construct: extracellular domain; also called FcgRI; CD64; not shown: C-terminal His tag
# Test: SPR (Biacore), antibody captured on antigen peptide chip, FcγRIa as analyte; relative binding amount
# Protocol: as §2
# T3 sequence (P12314 16-292): as above
row,Ho/Con_1a,Binder
1,109 % of control (GpH7-B3/GpL16-k0 = 100),B3
2,104 % of control (GpH7-B3/GpL16-k0 = 100),B4
3,102 % of control (GpH7-B3/GpL16-k0 = 100),B5

# Target: T4, FcγRIa (human, UniProt P12314 16-292)
# T4 construct: extracellular domain; also called FcgRI; FcgRIa
# Test: SPR (Biacore), relative to GpH7-A5/GpH7-B3/GpL16-k0 = 100
# T4 sequence (P12314 16-292): as above
row,He/Con_1a (Ia binding),Binder
1,109 relative (control = 100),B6
2,113 relative (control = 100),B7
3,112 relative (control = 100),B8
4,98.8 relative (control = 100),B9
5,117 relative (control = 100),B10
6,112 relative (control = 100),B11
7,112 relative (control = 100),B12
8,112 relative (control = 100),B13
9,104 relative (control = 100),B14
10,114 relative (control = 100),B15
11,102 relative (control = 100),B16
12,107 relative (control = 100),B17
13,114 relative (control = 100),B18
14,60.2 relative (control = 100),B19
15,121 relative (control = 100),B20
16,111 relative (control = 100),B21
17,105 relative (control = 100),B22
18,102 relative (control = 100),B23
19,108 relative (control = 100),B24
20,104 relative (control = 100),B25
21,112 relative (control = 100),B26
22,113 relative (control = 100),B27
23,103 relative (control = 100),B28
24,111 relative (control = 100),B29
25,112 relative (control = 100),B30
26,105 relative (control = 100),B31
27,116 relative (control = 100),B32

# Target: T1, FcγRIIb
# Test: as above
row,He/Con_2b (IIb binding),Binder
1,73.3 relative (control = 100),B6
2,83.5 relative (control = 100),B7
3,84.3 relative (control = 100),B8
4,81.1 relative (control = 100),B9
5,73.9 relative (control = 100),B10
6,66.8 relative (control = 100),B11
7,55.6 relative (control = 100),B12
8,93.2 relative (control = 100),B13
9,41.1 relative (control = 100),B14
10,87.5 relative (control = 100),B15
11,68.6 relative (control = 100),B16
12,51.6 relative (control = 100),B17
13,88.2 relative (control = 100),B18
14,7.3 relative (control = 100),B19
15,88.4 relative (control = 100),B20
16,87 relative (control = 100),B21
17,41.2 relative (control = 100),B22
18,63.1 relative (control = 100),B23
19,74.5 relative (control = 100),B24
20,85.8 relative (control = 100),B25
21,69.2 relative (control = 100),B26
22,73.6 relative (control = 100),B27
23,78.3 relative (control = 100),B28
24,53.9 relative (control = 100),B29
25,84.1 relative (control = 100),B30
26,77.4 relative (control = 100),B31
27,81.1 relative (control = 100),B32

# Target: T4, FcγRIa
# Test: SPR (Biacore); He/Con_1a (FcgRIa) divided by He/Con_2b (FcgRIIb)
# Protocol: as §1, §2
row,Ia/IIb He_1a/2b,Binder
1,1.49,B6
2,1.35,B7
3,1.33,B8
4,1.22,B9
5,1.58,B10
6,1.68,B11
7,2.01,B12
8,1.21,B13
9,2.53,B14
10,1.31,B15
11,1.49,B16
12,2.07,B17
13,1.29,B18
14,8.22,B19
15,1.37,B20
16,1.27,B21
17,2.54,B22
18,1.61,B23
19,1.45,B24
20,1.21,B25
21,1.62,B26
22,1.54,B27
23,1.31,B28
24,2.06,B29
25,1.34,B30
26,1.35,B31
27,1.42,B32
